Data published in publication PMC9482650, “Quantitative fragmentomics allow affinity mapping of interactomes” (Nature Communications, 2022).
Blank lines part the entries; values can stand above or below the binder they belong to.

Experiments:
Experiment in all cases: holdup assay
Set-up in all cases: key: below the threshold = too weak to quantify, mostly under pKd 3.1 to 4
[1] = target: MAGI2_5, Q86UL8
[2] = target: T1, DFNB31_1, Q9P202
T1 sequence (Q9P202 135-233, limits assumed, looked up): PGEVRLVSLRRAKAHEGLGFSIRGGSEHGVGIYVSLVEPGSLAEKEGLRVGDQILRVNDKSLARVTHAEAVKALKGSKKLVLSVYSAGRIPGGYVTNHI

[3] = target: IL16_1, Q14005
[4] = target: MAGI2_3, Q86UL8
[5] = target: LIMK2, P53671
[6] = target: NOS1, P29475
[7] = target: T2, APBA1_1, Q02410
T2 sequence (Q02410 651-752, limits assumed, looked up): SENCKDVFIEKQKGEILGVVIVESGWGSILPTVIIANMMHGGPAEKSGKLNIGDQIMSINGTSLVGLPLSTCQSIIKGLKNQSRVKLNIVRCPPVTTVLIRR

[8] = target: T3, HTRA3, P83110
T3 sequence (P83110 354-453, limits assumed, looked up): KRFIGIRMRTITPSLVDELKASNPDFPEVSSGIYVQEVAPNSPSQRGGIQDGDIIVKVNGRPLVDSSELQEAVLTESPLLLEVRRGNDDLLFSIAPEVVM

[9] = target: T4, MPDZ_5, O75970
T4 sequence (O75970 695-796, limits assumed, looked up): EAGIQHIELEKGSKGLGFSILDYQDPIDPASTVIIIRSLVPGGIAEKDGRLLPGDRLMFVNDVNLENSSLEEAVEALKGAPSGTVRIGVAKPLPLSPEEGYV

[10] = target: DLG1_3, Q12959
[11] = target: GORASP1, Q9BQQ3
[12] = target: GRID2IP_2, A4D2P6
[13] = target: GRIP2_6, Q9C0E4
[14] = target: T5, RHPN1, Q8TCX5
T5 sequence (Q8TCX5 508-602, limits assumed, looked up): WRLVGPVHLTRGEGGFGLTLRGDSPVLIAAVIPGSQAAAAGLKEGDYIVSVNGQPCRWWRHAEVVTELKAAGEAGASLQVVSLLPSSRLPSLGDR

[15] = target: T6, DFNB31_2, Q9P202
T6 sequence (Q9P202 274-371, limits assumed, looked up): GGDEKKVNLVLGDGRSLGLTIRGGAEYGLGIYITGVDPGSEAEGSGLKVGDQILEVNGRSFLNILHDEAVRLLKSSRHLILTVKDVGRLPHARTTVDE

[16] = target: T7, APBA2_1, Q99767
T7 sequence (Q99767 563-664, limits assumed, looked up): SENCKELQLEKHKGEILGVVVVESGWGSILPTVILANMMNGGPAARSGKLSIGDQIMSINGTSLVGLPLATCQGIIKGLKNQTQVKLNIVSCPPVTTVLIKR

[17] = target: GORASP2, Q9H8Y8
[18] = target: FRMPD3, Q5JV73
[19] = target: DLG2_3, Q15700
[20] = target: T8, SIPA1L2, Q9P2F8
T8 sequence (Q9P2F8 945-1036, limits assumed, looked up): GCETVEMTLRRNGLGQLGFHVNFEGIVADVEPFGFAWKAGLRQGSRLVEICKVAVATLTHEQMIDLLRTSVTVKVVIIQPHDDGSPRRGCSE

[21] = target: NHERF2_2, Q15599
[22] = target: GRIP2_7, Q9C0E4
[23] = target: AHNAK1, Q09666
[24] = target: LNX1_1, Q8TBB1
[25] = target: T9, APBA2_2, Q99767
T9 sequence (Q99767 654-744, limits assumed, looked up): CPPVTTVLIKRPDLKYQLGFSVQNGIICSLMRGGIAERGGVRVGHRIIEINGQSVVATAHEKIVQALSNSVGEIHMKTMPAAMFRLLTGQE

[26] = target: T10, DVL3, Q92997
T10 sequence (Q92997 244-331, limits assumed, looked up): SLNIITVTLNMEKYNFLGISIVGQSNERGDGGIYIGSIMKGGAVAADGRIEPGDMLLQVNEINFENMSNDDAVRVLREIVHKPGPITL

[27] = target: MAST1, Q9Y2H9
[28] = plain residues with an end cap or a label only (N-terminal biotin on a linker: ado-ado)
[29] = plain residues with an end cap or a label only (N-terminal biotin on a linker: ahx)
[30] = plain residues with an end cap or a label only (N-terminal biotin on a linker: ttds)

MAGI2_3, Q86UL8, sequence (Q86UL8 600-682): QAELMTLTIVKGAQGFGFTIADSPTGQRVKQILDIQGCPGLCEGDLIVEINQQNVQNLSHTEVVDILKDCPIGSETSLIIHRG
IL16_1, Q14005, sequence (Q14005 210-306): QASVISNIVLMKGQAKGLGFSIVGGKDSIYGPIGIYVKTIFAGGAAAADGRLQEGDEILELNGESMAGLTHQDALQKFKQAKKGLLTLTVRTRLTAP
MAGI2_5, Q86UL8, sequence (Q86UL8 915-1017): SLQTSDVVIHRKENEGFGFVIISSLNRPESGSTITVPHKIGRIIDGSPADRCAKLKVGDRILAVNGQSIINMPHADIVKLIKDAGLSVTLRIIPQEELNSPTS
NOS1, P29475, sequence (P29475 9-101): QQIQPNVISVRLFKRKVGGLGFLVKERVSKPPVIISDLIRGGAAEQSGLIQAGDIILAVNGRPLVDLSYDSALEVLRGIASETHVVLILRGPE
LIMK2, P53671, sequence (P53671 143-248): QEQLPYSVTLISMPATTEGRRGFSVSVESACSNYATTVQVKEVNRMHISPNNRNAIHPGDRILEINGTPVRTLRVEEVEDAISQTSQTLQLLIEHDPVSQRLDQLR
DLG1_3, Q12959, sequence (Q12959 457-571): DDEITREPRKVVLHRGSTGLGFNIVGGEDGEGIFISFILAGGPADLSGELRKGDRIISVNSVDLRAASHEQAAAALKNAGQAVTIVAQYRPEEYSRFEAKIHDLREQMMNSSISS
GRIP2_6, Q9C0E4, sequence (Q9C0E4 648-740): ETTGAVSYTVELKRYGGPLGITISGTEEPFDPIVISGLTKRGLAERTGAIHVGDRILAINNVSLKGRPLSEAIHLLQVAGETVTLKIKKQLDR
FRMPD3, Q5JV73, sequence (Q5JV73 12-100): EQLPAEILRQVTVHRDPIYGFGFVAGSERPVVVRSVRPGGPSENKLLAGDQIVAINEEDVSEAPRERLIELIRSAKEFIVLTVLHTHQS
MAST1, Q9Y2H9, sequence (Q9Y2H9 962-1065): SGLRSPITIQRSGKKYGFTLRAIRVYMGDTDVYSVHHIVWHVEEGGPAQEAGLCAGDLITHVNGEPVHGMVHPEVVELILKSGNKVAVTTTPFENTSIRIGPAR
AHNAK1, Q09666, sequence (Q09666 4-100): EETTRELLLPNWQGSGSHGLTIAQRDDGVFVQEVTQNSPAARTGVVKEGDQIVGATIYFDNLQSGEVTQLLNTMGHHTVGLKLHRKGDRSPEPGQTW
LNX1_1, Q8TBB1, sequence (Q8TBB1 261-371): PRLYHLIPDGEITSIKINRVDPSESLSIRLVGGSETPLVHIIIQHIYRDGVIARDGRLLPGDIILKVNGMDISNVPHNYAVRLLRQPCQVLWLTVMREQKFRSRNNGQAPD
NHERF2_2, Q15599, sequence (Q15599 142-238): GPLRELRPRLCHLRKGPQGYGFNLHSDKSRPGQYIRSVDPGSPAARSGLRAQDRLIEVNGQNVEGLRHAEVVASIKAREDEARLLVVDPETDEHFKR
GRIP2_7, Q9C0E4, sequence (Q9C0E4 934-1023): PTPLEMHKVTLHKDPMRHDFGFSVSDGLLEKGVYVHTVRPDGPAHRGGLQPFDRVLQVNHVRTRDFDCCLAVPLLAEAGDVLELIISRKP
GORASP1, Q9BQQ3, sequence (Q9BQQ3 1-208): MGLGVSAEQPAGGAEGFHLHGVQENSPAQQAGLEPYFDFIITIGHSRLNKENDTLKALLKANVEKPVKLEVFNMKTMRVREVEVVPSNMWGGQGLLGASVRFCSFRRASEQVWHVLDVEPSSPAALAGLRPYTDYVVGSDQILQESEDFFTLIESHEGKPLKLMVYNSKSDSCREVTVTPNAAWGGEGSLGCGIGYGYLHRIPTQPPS
GRID2IP_2, A4D2P6, sequence (A4D2P6 272-370): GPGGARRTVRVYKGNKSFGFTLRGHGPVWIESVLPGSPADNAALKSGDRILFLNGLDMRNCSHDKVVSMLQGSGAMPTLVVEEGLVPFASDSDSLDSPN

- pKd [1, 28]: 3.82
- pKd [2, 28]: 4.24
- pKd [3, 28]: 3.94
- pKd [4, 28]: below the threshold
- pKd [5, 28]: below the threshold
- pKd [6, 28]: below the threshold
B1: MUC3B, MUC3A, Q02505;Q9H195 (peptide)
chain: KRPEMTSSSV

- pKd [7, 29]: below the threshold
- pKd [8, 29]: below the threshold
- pKd [9, 29]: below the threshold
- pKd [10, 29]: 3.85
- pKd [11, 29]: below the threshold
- pKd [1, 29]: 4.83
- pKd [12, 29]: below the threshold
- pKd [2, 29]: 4.23
- pKd [13, 29]: below the threshold
- pKd [14, 29]: 5.21
- pKd [3, 29]: 3.9
- pKd [15, 29]: 3.76
- pKd [16, 29]: below the threshold
- pKd [17, 29]: below the threshold
- pKd [18, 29]: below the threshold
- pKd [4, 29]: 3.98
- pKd [19, 29]: 4.54
- pKd [20, 29]: below the threshold
- pKd [21, 29]: below the threshold
- pKd [5, 29]: below the threshold
- pKd [22, 29]: below the threshold
- pKd [23, 29]: below the threshold
- pKd [24, 29]: 3.85
- pKd [6, 29]: 3.85
- pKd [25, 29]: below the threshold
- pKd [26, 29]: below the threshold
- pKd [27, 29]: 4.57
B2: CNKSR2, Q8WXI2 (peptide)
chain: HTHSYIETHV

- pKd [7, 30]: below the threshold
- pKd [8, 30]: below the threshold
- pKd [9, 30]: 3.53
- pKd [10, 30]: 4.36
- pKd [11, 30]: 3.72
- pKd [1, 30]: 4.42
- pKd [12, 30]: 4.33
- pKd [2, 30]: 3.86
- pKd [13, 30]: 3.64
- pKd [14, 30]: 4.71
- pKd [3, 30]: below the threshold
- pKd [15, 30]: 3.83
- pKd [16, 30]: below the threshold
- pKd [17, 30]: below the threshold
- pKd [18, 30]: 3.63
- pKd [4, 30]: 3.65
- pKd [19, 30]: below the threshold
- pKd [20, 30]: below the threshold
- pKd [21, 30]: 5.07
- pKd [5, 30]: below the threshold
- pKd [22, 30]: below the threshold
- pKd [23, 30]: 3.93
- pKd [24, 30]: below the threshold
- pKd [6, 30]: 3.6
- pKd [25, 30]: below the threshold
- pKd [26, 30]: 3.96
- pKd [27, 30]: 4.83
B3: GRASP, Q7Z6J2 (peptide)
chain: RSLEEEESQL
